Data taken from patent US20190367586A1.

Target: RSV strain 18537 pre-fusion F (Ds-Cav1) (human respiratory syncytial virus subgroup B strain 18537) (UniProt P13843)
Test: ELISA, F protein coated

Sequence of RSV strain 18537 pre-fusion F (Ds-Cav1) (human respiratory syncytial virus subgroup B strain 18537) (P13843 26-513): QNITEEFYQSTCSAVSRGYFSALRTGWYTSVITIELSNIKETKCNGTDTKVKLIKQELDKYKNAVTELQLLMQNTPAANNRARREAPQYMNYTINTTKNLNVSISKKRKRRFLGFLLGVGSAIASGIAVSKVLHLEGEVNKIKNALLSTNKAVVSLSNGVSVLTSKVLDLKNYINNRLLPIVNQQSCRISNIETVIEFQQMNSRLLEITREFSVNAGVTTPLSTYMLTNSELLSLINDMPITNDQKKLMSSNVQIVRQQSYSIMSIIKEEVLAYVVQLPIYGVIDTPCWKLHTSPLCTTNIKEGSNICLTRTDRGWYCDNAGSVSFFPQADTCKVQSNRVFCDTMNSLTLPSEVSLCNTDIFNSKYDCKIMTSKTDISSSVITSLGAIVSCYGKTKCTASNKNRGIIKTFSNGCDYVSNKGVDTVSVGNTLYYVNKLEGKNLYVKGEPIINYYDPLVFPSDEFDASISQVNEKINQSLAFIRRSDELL

Row | Substance | EC50 [µg/mL]
1 | motavizumab (antibody) | 0.022
2 | palivizumab (antibody) | 0.046
